Square brackets hold non-standard residues; d marks the D form. GABA = NCCCC(=O)O
T1: BC2T A5H (human)
T1 construct: position 5 library, row H
T1 peptide: Ac-PDRKHAVSHWQQ-NH2

T2: BC2T K4P (human)
T2 construct: position 4 library, row P
T2 peptide: Ac-PDRPAAVSHWQQ-NH2

T3: BC2T A5W (human)
T3 construct: position 5 library, row W
T3 peptide: Ac-PDRKWAVSHWQQ-NH2

T4: BC2T R3P (human)
T4 construct: position 3 library (BC2TR3X), row P
T4 peptide: Ac-PDPKAAVSHWQQ-NH2

T5: BC2T A5T (human)
T5 construct: position 5 library, row T
T5 peptide: Ac-PDRKTAVSHWQQ-NH2

T6: BC2T A6F (human)
T6 construct: position 6 library (BC2TA6X), row F
T6 peptide: Ac-PDRKAFVSHWQQ-NH2

T7: BC2T A6T (human)
T7 construct: position 6 library (BC2TA6X), row T
T7 peptide: Ac-PDRKATVSHWQQ-NH2

T8: BC2T P1W (human)
T8 construct: position 1 library, row W
T8 peptide: Ac-WDRKAAVSHWQQ-NH2

T9: BC2T R3C(Abu) (human, SMILES …)
T9 construct: position 3 library (BC2TR3X), row C(Abu) / C*
T9 peptide: Ac-PD[GABA]KAAVSHWQQ-NH2

T10: BC2T D2Y (human)
T10 construct: position 2 library, row Y
T10 peptide: Ac-PYRKAAVSHWQQ-NH2

T11: BC2T D2Q (human)
T11 construct: position 2 library, row Q
T11 peptide: Ac-PQRKAAVSHWQQ-NH2

T12: BC2T A5R (human)
T12 construct: position 5 library, row R
T12 peptide: Ac-PDRKRAVSHWQQ-NH2

T13: BC2T K4D (human)
T13 construct: position 4 library, row D
T13 peptide: Ac-PDRDAAVSHWQQ-NH2

T14: BC2T A6K (human)
T14 construct: position 6 library (BC2TA6X), row K
T14 peptide: Ac-PDRKAKVSHWQQ-NH2

T15: BC2T A5N (human)
T15 construct: position 5 library, row N
T15 peptide: Ac-PDRKNAVSHWQQ-NH2

T16: BC2T R3E (human)
T16 construct: position 3 library (BC2TR3X), row E
T16 peptide: Ac-PDEKAAVSHWQQ-NH2

T17: BC2T K4C(Abu) (human, not fully specified (residue 4))
T17 construct: position 4 library, row C(Abu) / C*
T17 peptide: Ac-PDRCAAVSHWQQ-NH2

T18: BC2T A5E (human)
T18 construct: position 5 library, row E
T18 peptide: Ac-PDRKEAVSHWQQ-NH2

T19: BC2T V7E (human)
T19 construct: position 7 library, row E
T19 peptide: Ac-PDRKAAESHWQQ-NH2

T20: BC2T V7W (human)
T20 construct: position 7 library, row W
T20 peptide: Ac-PDRKAAWSHWQQ-NH2

T21: BC2T D2C(Abu) (human, SMILES …)
T21 construct: position 2 library, row C(Abu) / C*
T21 peptide: Ac-P[GABA]RKAAVSHWQQ-NH2

T22: BC2T V7N (human)
T22 construct: position 7 library, row N
T22 peptide: Ac-PDRKAANSHWQQ-NH2


Key:
Test in all cases: library pulldown, LC-MS of supernatant; ratio vs GFP-Nb control (0=captured, 1=not captured)
[1] = biological target: T1, BC2T A5H
Summary of the method: (§1)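 Unbound peptide left in supernatant after 1 h pulldown in PBS/0.01% CHAPS measured by reversed-phase LC-MS (8–30% eluent B gradient, 20 min).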

[2] = biological target: T2, BC2T K4P
Summary of the method: as §1

[3] = biological target: T3, BC2T A5W
Summary of the method: as §1

[4] = biological target: T4, BC2T R3P
Summary of the method: as §1

[5] = biological target: T5, BC2T A5T
Summary of the method: as §1

[6] = biological target: T6, BC2T A6F
Summary of the method: as §1

[7] = biological target: T7, BC2T A6T
Summary of the method: as §1

[8] = biological target: T8, BC2T P1W
Summary of the method: as §1

[9] = biological target: T9, BC2T R3C(Abu)
Summary of the method: as §1

[10] = biological target: T10, BC2T D2Y
Summary of the method: as §1

[11] = biological target: T11, BC2T D2Q
Summary of the method: as §1

[12] = biological target: T12, BC2T A5R
Summary of the method: as §1

[13] = biological target: T13, BC2T K4D
Summary of the method: as §1

[14] = biological target: T14, BC2T A6K
Summary of the method: as §1

[15] = biological target: T15, BC2T A5N
Summary of the method: as §1

[16] = biological target: T16, BC2T R3E
Summary of the method: as §1

[17] = biological target: T17, BC2T K4C(Abu)
Summary of the method: as §1

[18] = biological target: T18, BC2T A5E
Summary of the method: as §1

[19] = biological target: T19, BC2T V7E
Summary of the method: as §1

[20] = biological target: T20, BC2T V7W
Summary of the method: as §1

[21] = biological target: T21, BC2T D2C(Abu)
Summary of the method: as §1

[22] = biological target: T22, BC2T V7N
Summary of the method: as §1

ratio [1]	ratio [2]	ratio [3]	ratio [4]	ratio [5]	ratio [6]	ratio [7]	ratio [8]	ratio [9]	ratio [10]	ratio [11]	ratio [12]	ratio [13]	ratio [14]	ratio [15]	ratio [16]	ratio [17]	ratio [18]	ratio [19]	ratio [20]	Binder	further results
0.2	1	0	0.8	0.1	1	0.2	0.1	0.5	0.1	0.1	0.2	1	1	0.3	1	0.1	0.2	0.4	0.1	BC2 nanobody (BC2-Nb) (VHH, immobilised on agarose/sepharose beads in this assay; also called BC2 nanotrap (immobilised form); not shown: C-terminal 6xHis-tag added by pHEN6 vector) VHH: QVQLVESGGGLVQPGGSLTLSCTASGFTLDHYDIGWFRQAPGKEREGVSCINNSDDDTYYADSVKGRFTIFMDNAKDTVYLQMNSLKPEDTAIYYCAEARGCKRGRYEYDFWGQGTQVTVSS	ratio [21]: 0.1; ratio [22]: 0.2
0.3	1	0.1	1	0.3	0.9	0.4	0.3	0.9	0.2	0.2	0.1	1	0.8	0.5	1	0.3	0.7	0.8	0.3	BC2-NbR106S (VHH, immobilised on beads in this assay; not shown: C-terminal 6xHis-tag added by pHEN6 vector) VHH: QVQLVESGGGLVQPGGSLTLSCTASGFTLDHYDIGWFRQAPGKEREGVSCINNSDDDTYYADSVKGRFTIFMDNAKDTVYLQMNSLKPEDTAIYYCAEARGCKRGSYEYDFWGQGTQVTVSS	ratio [21]: 0.3; ratio [22]: 0.4

Source: patent US20170137467A1 (CHROMOTEK, published 2017)
